According to article PMC9134599:

Key:
[1] = biological target: human amylin 1 receptor (CTR + RAMP1) (human) (UniProt O60894)
[2] = biological target: human calcitonin receptor, transcript variant 2 (CT(a) subtype), expressed alone (human)

Sequence of UniProt O60894 (O60894 whole entry, looked up): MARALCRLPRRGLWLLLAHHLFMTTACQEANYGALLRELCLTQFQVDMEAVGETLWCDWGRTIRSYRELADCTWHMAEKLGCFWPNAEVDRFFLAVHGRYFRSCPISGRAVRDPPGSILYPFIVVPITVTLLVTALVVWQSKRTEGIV
Sequence of human amylin (P10997 34-70): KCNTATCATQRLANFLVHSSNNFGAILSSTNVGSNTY

pEC50 of the amylin-induced current (two-electrode voltage clamp, -70 mV), oocytes expressing AMY1-R, amylin 0.01 to 10 μM [1] | inward current (two-electrode voltage clamp, -70 mV), oocytes expressing CTR, CGRP 0.01 to 10 μM; maximum at 10 μM [2] [μA] | pEC50 of the CGRP-induced inward current (two-electrode voltage clamp, holding potential -70 mV), oocytes expressing CTR [2] | Substance
6.33 -log M |  |  | human amylin (from UniProt P10997 34-70) (peptide)
 | -1.07 | 5.42 -log M | human α-CGRP (calcitonin gene-related peptide) (from UniProt P06881 83-119)
